Values of other authors in article PMC5467299.

Tests used:
[1] = target: tPA (Homo sapiens) (UniProt P00750)
[2] = target: Plasminogen (Homo sapiens) (UniProt P00747)
Chain of UniProt P00747 (P00747 20-810): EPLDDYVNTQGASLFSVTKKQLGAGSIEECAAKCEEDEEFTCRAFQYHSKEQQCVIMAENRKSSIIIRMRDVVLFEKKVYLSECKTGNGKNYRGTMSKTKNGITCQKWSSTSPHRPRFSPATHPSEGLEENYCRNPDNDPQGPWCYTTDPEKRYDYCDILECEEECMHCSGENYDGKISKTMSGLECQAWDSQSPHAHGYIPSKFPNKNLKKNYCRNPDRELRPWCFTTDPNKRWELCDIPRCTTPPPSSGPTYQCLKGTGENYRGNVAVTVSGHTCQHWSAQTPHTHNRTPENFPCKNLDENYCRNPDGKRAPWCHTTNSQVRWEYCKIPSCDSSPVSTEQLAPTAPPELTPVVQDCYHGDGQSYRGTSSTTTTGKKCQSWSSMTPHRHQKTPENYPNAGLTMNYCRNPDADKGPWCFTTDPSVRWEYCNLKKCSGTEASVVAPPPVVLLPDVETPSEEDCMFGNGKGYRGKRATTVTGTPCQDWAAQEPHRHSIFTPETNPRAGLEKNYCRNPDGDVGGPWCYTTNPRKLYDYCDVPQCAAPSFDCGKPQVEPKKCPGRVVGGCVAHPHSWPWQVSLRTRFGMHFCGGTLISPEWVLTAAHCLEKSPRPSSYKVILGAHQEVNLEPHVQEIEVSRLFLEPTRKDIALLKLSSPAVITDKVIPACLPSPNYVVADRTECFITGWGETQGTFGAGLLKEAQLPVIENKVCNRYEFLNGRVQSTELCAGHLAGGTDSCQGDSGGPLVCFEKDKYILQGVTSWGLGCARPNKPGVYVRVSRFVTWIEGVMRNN

Chain of UniProt P00750 (P00750 36-562): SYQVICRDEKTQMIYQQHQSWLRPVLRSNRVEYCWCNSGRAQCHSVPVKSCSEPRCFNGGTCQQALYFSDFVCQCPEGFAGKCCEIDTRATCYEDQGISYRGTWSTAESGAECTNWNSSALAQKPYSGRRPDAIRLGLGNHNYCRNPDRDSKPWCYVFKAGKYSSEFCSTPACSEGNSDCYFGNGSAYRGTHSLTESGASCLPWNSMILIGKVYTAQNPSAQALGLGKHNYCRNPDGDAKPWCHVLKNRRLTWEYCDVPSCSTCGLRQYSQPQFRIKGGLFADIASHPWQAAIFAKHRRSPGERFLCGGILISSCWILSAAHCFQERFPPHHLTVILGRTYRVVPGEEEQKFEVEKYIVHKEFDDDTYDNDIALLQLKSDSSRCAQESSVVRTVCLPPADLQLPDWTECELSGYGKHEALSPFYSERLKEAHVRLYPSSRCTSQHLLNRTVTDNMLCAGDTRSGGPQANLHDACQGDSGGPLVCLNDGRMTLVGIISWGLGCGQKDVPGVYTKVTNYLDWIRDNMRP

Fibrin alpha chain 148-160 (from UniProt P02671)
Kd [1]: 1 µM
Kd [2]: 1 µM
